Values of other authors as cited in article PMC8810291.

Target: FNIP1 (Homo sapiens) (UniProt Q8TF40)
Sequence (Q8TF40 whole entry): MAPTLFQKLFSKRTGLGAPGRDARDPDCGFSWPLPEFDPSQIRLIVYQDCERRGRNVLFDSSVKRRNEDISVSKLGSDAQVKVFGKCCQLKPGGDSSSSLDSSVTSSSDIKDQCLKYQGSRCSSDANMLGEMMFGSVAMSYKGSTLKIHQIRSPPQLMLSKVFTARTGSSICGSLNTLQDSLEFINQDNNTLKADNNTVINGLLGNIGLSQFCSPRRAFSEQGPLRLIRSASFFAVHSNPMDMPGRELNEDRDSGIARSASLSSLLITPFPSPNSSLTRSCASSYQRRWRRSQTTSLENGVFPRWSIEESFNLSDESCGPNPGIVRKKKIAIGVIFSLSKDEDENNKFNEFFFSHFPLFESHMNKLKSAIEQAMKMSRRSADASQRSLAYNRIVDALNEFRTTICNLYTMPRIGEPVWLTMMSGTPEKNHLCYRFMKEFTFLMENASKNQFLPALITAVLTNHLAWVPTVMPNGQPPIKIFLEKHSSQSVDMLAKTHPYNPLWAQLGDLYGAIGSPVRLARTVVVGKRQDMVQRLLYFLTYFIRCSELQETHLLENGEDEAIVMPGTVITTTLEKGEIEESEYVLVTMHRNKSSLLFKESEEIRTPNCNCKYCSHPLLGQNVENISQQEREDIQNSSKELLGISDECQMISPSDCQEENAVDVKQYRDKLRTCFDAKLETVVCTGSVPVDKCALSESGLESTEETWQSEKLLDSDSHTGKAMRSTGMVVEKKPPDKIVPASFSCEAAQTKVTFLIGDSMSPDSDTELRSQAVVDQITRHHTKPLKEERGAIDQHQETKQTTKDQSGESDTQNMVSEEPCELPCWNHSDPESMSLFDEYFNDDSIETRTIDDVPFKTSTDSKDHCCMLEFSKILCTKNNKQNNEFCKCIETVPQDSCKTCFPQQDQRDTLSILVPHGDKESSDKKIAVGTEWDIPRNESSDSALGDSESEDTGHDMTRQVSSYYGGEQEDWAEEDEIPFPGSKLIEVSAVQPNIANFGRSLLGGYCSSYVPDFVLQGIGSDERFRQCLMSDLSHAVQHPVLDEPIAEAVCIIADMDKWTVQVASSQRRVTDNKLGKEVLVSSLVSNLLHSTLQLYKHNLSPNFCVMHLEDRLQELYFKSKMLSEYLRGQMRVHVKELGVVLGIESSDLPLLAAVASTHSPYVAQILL

FEM1B, sequence (Q9UK73 whole entry): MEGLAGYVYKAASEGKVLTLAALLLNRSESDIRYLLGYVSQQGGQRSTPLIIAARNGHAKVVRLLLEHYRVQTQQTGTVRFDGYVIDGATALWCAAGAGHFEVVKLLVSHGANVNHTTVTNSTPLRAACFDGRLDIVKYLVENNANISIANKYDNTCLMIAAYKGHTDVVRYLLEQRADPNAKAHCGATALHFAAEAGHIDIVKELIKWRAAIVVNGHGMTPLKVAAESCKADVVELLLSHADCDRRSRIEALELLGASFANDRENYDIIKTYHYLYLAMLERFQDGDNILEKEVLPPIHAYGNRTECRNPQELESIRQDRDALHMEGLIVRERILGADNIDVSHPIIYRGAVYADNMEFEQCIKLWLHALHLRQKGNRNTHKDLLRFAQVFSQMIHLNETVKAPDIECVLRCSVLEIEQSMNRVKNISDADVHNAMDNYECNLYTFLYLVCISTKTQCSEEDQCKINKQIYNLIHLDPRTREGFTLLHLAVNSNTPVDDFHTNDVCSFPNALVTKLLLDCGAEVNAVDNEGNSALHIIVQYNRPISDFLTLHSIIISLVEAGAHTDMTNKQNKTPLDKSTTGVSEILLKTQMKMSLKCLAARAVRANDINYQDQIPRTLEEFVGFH

- Kd: 20 nM
Substance: FEM1B (from UniProt Q9UK73)
